Measurements from paper PMC3020921 (Molecular Biology of the Cell, 2011).

B1: endogenous NLK protein of PC12 cells (enzyme, rat (endogenous in PC12), UniProt D3ZSZ3 1-527, looked up)
chain: MSLCGTRANAKMMAAYNGGTSAAAAGHHHHHHHHLPHLPPPHLHHHHHPQHHLHPGSAAAVHPVQQHTSSAAAAAAAAAAAAAMLNPGQQQPYFPSPAPGQAPGPAAAAPAQVQAAAAATVKAHHHQHSHHPQQQLDIEPDRPIGYGAFGVVWSVTDPRDGKRVALKKMPNVFQNLVSCKRVFRELKMLCFFKHDNVLSALDILQPPHIDYFEEIYVVTELMQSDLHKIIVSPQPLSSDHVKVFLYQILRGLKYLHSAGILHRDIKPGNLLVNSNCVLKICDFGLARVEELDESRHMTQEVVTQYYRAPEILMGSRHYSNAIDIWSVGCIFAELLGRRILFQAQSPIQQLDLITDLLGTPSLEAMRTACEGAKAHILRGPHKQPSLPVLYTLSSQATHEAVHLLCRMLVFDPSKRISAKDALAHPYLDEGRLRYHTCMCKCCFSTSTGRVYTSDFEPVTNPKFDDTFEKNLSSVRQVKEIIHQFILEQQKGNRVPLCINPQSAAFKSFISSTVAQPSEMPPSPLVWE

Tests used:
[1] = target: Flag-tagged Nemo-like kinase (NLK), wild type; test: SEC
SEC = target: the molecule itself; test: SEC

Row | Molecule | stoichiometry N [1] | stoichiometry N (SEC)
1 | Flag-tagged Nemo-like kinase (NLK), wild type (enzyme) | 2 | 
2 | B1 |  | 2
